Test results reported in PMC5758874 (Nucleic Acids Research, 2017).
Several values for one entry are separate records, joined by “and”; a condition that tells them apart may be missing. Equal entries are not always repeated. Where two headings read alike, the source gives them in different places.

Experiments:
RcsB K180A = molecular target: T1, RcsB K180A (Salmonella enterica serovar Typhimurium, UniProt P58663 1-210, K180A); experiment: EMSA
T1 sequence: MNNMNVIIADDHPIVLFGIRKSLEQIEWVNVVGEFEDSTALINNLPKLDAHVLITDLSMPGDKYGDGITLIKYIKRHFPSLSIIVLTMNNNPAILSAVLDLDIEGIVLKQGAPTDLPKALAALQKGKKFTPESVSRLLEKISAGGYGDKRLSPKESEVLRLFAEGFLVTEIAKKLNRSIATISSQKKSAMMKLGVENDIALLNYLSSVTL

RcsB Q185A = molecular target: T2, RcsB Q185A (Salmonella enterica serovar Typhimurium, UniProt P58663 1-210, Q185A); experiment: EMSA
T2 sequence: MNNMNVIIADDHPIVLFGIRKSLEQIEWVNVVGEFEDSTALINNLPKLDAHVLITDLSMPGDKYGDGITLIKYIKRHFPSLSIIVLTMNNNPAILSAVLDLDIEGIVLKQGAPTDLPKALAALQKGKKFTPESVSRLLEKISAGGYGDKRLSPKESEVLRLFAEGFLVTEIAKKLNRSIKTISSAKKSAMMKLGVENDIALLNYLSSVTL

RcsB WT [1] = molecular target: T3, RcsB WT (Salmonella enterica serovar Typhimurium, UniProt P58663 1-210); experiment: EMSA
T3 sequence: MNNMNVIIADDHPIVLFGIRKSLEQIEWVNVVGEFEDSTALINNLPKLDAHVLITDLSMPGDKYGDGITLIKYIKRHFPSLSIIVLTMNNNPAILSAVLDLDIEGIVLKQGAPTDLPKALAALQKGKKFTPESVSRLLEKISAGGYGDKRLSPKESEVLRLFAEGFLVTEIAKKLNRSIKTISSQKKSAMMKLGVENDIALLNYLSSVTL

RcsB A93D = molecular target: T4, RcsB A93D (Salmonella enterica serovar Typhimurium, UniProt P58663 1-210, A93D); experiment: EMSA
T4 sequence: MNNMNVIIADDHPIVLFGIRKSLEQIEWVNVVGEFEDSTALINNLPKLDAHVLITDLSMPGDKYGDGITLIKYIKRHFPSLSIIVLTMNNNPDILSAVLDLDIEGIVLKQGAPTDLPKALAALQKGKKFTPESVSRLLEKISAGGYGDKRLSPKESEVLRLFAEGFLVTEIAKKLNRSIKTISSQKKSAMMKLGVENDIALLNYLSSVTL

RcsB D56A = molecular target: T5, RcsB D56A (Salmonella enterica serovar Typhimurium, UniProt P58663 1-210, D56A); experiment: EMSA
T5 sequence: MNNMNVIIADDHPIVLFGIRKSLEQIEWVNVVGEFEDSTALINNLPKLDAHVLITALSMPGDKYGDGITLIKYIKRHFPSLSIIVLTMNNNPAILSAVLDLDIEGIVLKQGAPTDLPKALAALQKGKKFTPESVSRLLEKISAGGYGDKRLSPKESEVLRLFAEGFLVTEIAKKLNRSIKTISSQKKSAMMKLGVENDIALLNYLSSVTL

RcsB L202D = molecular target: T6, RcsB L202D (Salmonella enterica serovar Typhimurium, UniProt P58663 1-210, L202D); experiment: EMSA
T6 sequence: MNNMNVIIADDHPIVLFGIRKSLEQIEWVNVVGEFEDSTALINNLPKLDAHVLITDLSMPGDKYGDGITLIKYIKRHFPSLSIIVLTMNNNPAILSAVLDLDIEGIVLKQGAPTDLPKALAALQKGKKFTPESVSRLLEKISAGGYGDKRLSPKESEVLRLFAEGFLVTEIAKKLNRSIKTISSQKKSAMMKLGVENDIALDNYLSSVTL

RcsB L202F = molecular target: T7, RcsB L202F (Salmonella enterica serovar Typhimurium, UniProt P58663 1-210, L202F); experiment: EMSA
T7 sequence: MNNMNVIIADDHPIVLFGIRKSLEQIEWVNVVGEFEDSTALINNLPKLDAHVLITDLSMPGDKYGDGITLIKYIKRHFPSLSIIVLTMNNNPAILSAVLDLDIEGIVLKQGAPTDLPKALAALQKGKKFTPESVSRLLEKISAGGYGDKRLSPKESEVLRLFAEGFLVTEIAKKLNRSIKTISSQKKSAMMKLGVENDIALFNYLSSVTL

RcsB H12A = molecular target: T8, RcsB H12A (Salmonella enterica serovar Typhimurium, UniProt P58663 1-210, H12A); experiment: EMSA
T8 sequence: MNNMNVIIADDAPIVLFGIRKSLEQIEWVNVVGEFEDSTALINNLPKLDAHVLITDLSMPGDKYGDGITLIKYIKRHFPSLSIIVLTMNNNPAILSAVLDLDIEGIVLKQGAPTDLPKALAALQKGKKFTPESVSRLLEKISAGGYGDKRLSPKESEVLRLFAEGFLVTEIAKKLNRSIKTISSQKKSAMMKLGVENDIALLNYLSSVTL

RcsB M88A = molecular target: T9, RcsB M88A (Salmonella enterica serovar Typhimurium, UniProt P58663 1-210, M88A); experiment: EMSA
T9 sequence: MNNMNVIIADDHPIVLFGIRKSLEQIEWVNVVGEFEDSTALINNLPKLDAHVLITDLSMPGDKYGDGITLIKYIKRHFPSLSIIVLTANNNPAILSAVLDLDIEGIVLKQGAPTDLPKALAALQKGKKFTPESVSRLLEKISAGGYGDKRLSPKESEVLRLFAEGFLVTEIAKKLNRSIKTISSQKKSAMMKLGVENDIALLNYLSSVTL

RcsB WT [2] = molecular target: T3, RcsB WT; experiment: EMSA; remark: listed apart in the source
crystal structure [3] = molecular target: the molecule itself; experiment: crystal structure
SEC = molecular target: the molecule itself; experiment: SEC
crystal structure [4] = molecular target: the molecule itself; experiment: crystal structure; remark: listed apart in the source

B1: rcsA promoter (dsDNA)
DNA 1: CCTGTTTTACTAAGGTTTATCCGAAAATA
DNA 2: TATTTTCGGATAAACCTTAGTAAAACAGG
- binding result (RcsB K180A): no binding
- binding result (RcsB Q185A): no binding
- binding result (RcsB WT [1]): binds
- binding result (RcsB A93D): no binding

B2: P1flhDC (dsDNA)
DNA 1: CGTCGAATTAGGAAAAATCTTAGGCA
DNA 2: TGCCTAAGATTTTTCCTAATTCGACG
- binding result (RcsB D56A): no binding
- binding result (RcsB K180A): no binding
- binding result (RcsB L202D): no binding
- binding result (RcsB L202F): binds
- binding result (RcsB H12A): no binding
- binding result (RcsB Q185A): no binding
- binding result (RcsB M88A): binds
- binding result (RcsB WT [2]): binds
- binding result (RcsB A93D): no binding

B3: RcsB from Salmonella enterica serovar Typhimurium (residues 1-210), wild type (natural protein, UniProt P58663 1-210, looked up)
chain: MNNMNVIIADDHPIVLFGIRKSLEQIEWVNVVGEFEDSTALINNLPKLDAHVLITDLSMPGDKYGDGITLIKYIKRHFPSLSIIVLTMNNNPAILSAVLDLDIEGIVLKQGAPTDLPKALAALQKGKKFTPESVSRLLEKISAGGYGDKRLSPKESEVLRLFAEGFLVTEIAKKLNRSIKTISSQKKSAMMKLGVENDIALLNYLSSVTL
- stoichiometry N (crystal structure [3]): 2

B4: RcsB E170A variant, incubated with acetylphosphate (natural protein, Salmonella enterica serovar Typhimurium, UniProt P58663 1-210, looked up)
chain: MNNMNVIIADDHPIVLFGIRKSLEQIEWVNVVGEFEDSTALINNLPKLDAHVLITDLSMPGDKYGDGITLIKYIKRHFPSLSIIVLTMNNNPAILSAVLDLDIEGIVLKQGAPTDLPKALAALQKGKKFTPESVSRLLEKISAGGYGDKRLSPKESEVLRLFAEGFLVTAIAKKLNRSIKTISSQKKSAMMKLGVENDIALLNYLSSVTL
modifications: phosphorylated (D56) by incubation with acetylphosphate; reduced level against the WT
- binding result (SEC): binds

B5: RcsB S207C variant (natural protein, Salmonella enterica serovar Typhimurium, UniProt P58663 1-210, looked up)
chain: MNNMNVIIADDHPIVLFGIRKSLEQIEWVNVVGEFEDSTALINNLPKLDAHVLITDLSMPGDKYGDGITLIKYIKRHFPSLSIIVLTMNNNPAILSAVLDLDIEGIVLKQGAPTDLPKALAALQKGKKFTPESVSRLLEKISAGGYGDKRLSPKESEVLRLFAEGFLVTEIAKKLNRSIKTISSQKKSAMMKLGVENDIALLNYLSCVTL
- stoichiometry N (crystal structure [4]): 2 and 6

B6: RcsB M88A variant, incubated with acetylphosphate (natural protein, Salmonella enterica serovar Typhimurium, UniProt P58663 1-210, looked up)
chain: MNNMNVIIADDHPIVLFGIRKSLEQIEWVNVVGEFEDSTALINNLPKLDAHVLITDLSMPGDKYGDGITLIKYIKRHFPSLSIIVLTANNNPAILSAVLDLDIEGIVLKQGAPTDLPKALAALQKGKKFTPESVSRLLEKISAGGYGDKRLSPKESEVLRLFAEGFLVTEIAKKLNRSIKTISSQKKSAMMKLGVENDIALLNYLSSVTL
modifications: phosphorylated (D56) by incubation with acetylphosphate; higher level than the WT
- binding result (SEC): binds

B7: Phosphorylated RcsB from S. Typhimurium (wild type incubated with acetylphosphate) (natural protein, Salmonella enterica serovar Typhimurium, UniProt P58663 1-210, looked up)
chain: MNNMNVIIADDHPIVLFGIRKSLEQIEWVNVVGEFEDSTALINNLPKLDAHVLITDLSMPGDKYGDGITLIKYIKRHFPSLSIIVLTMNNNPAILSAVLDLDIEGIVLKQGAPTDLPKALAALQKGKKFTPESVSRLLEKISAGGYGDKRLSPKESEVLRLFAEGFLVTEIAKKLNRSIKTISSQKKSAMMKLGVENDIALLNYLSSVTL
modifications: phosphorylated at D56 by incubation with acetylphosphate (AcP)
- stoichiometry N (SEC): 2
